From patent US20210116443A1 (CREATIVE PROTEIN SOLUTIONS, published 2021) come the findings set out here.

Test [1] addresses T1, HIS-TreAC-EI: N-terminally HIS-tagged fragment of TreA with C-terminal fusion leucine zipper (Escherichia coli O9:H4 (strain HS), UniProt A7ZZD1 97-565).
T1 sequence: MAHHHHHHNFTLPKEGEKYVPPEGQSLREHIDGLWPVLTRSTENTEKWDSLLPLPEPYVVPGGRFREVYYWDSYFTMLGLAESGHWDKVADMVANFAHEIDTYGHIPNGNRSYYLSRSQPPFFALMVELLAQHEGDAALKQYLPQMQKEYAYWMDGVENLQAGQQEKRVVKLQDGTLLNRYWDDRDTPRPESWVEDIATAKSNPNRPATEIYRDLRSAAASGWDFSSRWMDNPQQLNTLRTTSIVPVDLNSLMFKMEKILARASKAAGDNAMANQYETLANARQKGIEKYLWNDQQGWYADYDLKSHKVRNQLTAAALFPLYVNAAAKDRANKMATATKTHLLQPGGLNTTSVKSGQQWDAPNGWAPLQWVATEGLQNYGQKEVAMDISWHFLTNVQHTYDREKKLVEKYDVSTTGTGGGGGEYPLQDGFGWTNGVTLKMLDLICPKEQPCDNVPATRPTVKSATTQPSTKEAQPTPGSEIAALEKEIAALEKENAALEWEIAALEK
As to the kind of experiment: split trehalase complementation, non-complementary zippers Ei+Ei (FIG. 24A).

Test [2] deals with T2, HIS-TreAC-KI: N-terminally HIS-tagged fragment of TreA with C-terminal fusion leucine zipper (Escherichia coli O9:H4 (strain HS), UniProt A7ZZD1 97-565).
T2 sequence: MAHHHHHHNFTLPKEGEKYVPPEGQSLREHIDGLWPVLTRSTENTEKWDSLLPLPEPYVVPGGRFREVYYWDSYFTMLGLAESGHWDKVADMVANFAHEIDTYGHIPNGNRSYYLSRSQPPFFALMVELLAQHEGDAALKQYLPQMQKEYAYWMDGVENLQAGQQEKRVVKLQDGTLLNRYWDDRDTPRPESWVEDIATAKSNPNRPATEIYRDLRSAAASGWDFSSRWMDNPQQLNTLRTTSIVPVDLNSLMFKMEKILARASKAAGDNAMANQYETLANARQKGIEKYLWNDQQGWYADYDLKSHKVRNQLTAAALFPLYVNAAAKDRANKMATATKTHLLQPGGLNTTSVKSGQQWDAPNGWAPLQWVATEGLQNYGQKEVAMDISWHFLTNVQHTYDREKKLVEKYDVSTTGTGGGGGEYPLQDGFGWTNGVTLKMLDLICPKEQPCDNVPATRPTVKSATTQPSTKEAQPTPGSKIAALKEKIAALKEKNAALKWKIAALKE
As to the kind of experiment: cell-based or functional assay.

Test [3] addresses T3, HIS-TreAC: N-terminally HIS-tagged C-terminal fragment of TreA (Escherichia coli O9:H4 (strain HS), UniProt A7ZZD1 97-565).
T3 construct: Split E. coli trehalase fragment; also called HIS-tagged TreA^C
T3 sequence: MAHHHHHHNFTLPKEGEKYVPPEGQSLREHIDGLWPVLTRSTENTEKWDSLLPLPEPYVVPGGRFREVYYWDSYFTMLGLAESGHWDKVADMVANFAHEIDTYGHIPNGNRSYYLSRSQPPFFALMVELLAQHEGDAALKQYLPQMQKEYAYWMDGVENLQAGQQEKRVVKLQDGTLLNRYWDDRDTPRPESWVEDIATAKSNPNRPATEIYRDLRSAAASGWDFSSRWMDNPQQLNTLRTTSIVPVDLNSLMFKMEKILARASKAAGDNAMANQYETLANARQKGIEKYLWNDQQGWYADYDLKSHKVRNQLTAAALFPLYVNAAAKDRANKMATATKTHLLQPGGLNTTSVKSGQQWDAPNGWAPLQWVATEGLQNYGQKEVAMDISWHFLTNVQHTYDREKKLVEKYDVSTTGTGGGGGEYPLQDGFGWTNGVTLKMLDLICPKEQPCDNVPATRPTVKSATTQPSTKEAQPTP
The test is described as follows: split trehalase complementation, 24 h with trehalose, Benedict's reagent (FIG. 7).

In test [4] the target is T4, TreAC-HIS: C-terminally HIS-tagged C-terminal fragment of TreA (Escherichia coli O9:H4 (strain HS), UniProt A7ZZD1 96-565).
T4 construct: Split E. coli trehalase fragment; also called HIS-tagged TreA^C
T4 sequence: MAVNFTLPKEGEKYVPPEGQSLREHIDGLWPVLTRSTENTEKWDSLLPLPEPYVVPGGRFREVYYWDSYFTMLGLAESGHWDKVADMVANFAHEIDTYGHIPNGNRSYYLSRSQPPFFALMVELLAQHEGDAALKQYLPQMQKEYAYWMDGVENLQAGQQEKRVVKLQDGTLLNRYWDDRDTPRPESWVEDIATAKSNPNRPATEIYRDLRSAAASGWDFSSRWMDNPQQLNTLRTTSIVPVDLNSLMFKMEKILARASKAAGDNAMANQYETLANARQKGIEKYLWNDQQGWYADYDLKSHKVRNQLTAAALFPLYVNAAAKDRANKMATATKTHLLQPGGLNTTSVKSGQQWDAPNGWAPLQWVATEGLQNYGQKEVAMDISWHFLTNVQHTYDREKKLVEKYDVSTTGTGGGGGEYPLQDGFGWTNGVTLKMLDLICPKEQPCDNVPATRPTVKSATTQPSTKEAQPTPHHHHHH
Described as above.

Test [5] concerns the target T2, HIS-TreAC-KI: N-terminally HIS-tagged …. The test is described as follows: split trehalase complementation, non-complementary zippers Ki+Ki (FIG. 24A).
For test [6], the target named is HIS-TreA^N-bCalm: N-terminally HIS-tagged N-terminal fragment of TreA^N with C-terminal fusion of bovine …. The test is described as follows: split trehalase complementation with Ca2+, glucose read-out.

B1: HIS-TreAN-EI: N-terminally HIS-tagged N-terminal fragment of TreA with C-terminal fusion with leucine zipper (other)
chain: MAHHHHHHEETPVTPQPPDILLGPLFNDVQNAKLFPDQKTFADAVPNSDPLMILADYRMQQNQSGFDLRHFVNVNFTLPKEGEKYVPGSVPGSEIAALEKEIAALEKENAALEWEIAALEK
Take B1: the binding result in test [1] is listed as “no binding”. Moreover, in test [2], the “glucose signal over 3 h, lyophilized fusions resuspended in acidified bovine blood or milk (glucose strips)” value amounted to 2 fold.

B2: TreAN-HIS: C-terminally HIS-tagged N-terminal fragment of TreA (w/o signal peptide) (other)
chain: MEETPVTPQPPDILLGPLFNDVQNAKLFPDQKTFADAVPNSDPLMILADYRMQQNQSGFDLRHFVNVNFTLPKEGEKYVPHHHHHH
notes: Split E. coli trehalase fragment; also called HIS-tagged TreA^N
B2: the binding result in test [3] and in test [4] was “no binding” throughout.

B3: HIS-TreAN-KI: N-terminally HIS-tagged N-terminal fragment of TreA with C-terminal fusion with leucine zipper (other)
chain: MAHHHHHHEETPVTPQPPDILLGPLFNDVQNAKLFPDQKTFADAVPNSDPLMILADYRMQQNQSGFDLRHFVNVNFTLPKEGEKYVPGSVPGSKIAALKEKIAALKEKNAALKWKIAALKE
For the molecule B3, the binding result in test [5] is given as “no binding”.

B4: CaMKIIp-TreA^C-HIS: CaMKII peptide N-terminally fused to the C-terminally HIS-tagged C-terminal fragment of TreA (other)
chain: MARRKLKGAILTTMLATRNFVDNFTLPKEGEKYVPPEGQSLREHIDGLWPVLTRSTENTEKWDSLLPLPEPYVVPGGRFREVYYWDSYFTMLGLAESGHWDKVADMVANFAHEIDTYGHIPNGNRSYYLSRSQPPFFALMVELLAQHEGDAALKQYLPQMQKEYAYWMDGVENLQAGQQEKRVVKLQDGTLLNRYWDDRDTPRPESWVEDIATAKSNPNRPATEIYRDLRSAAASGWDFSSRWMDNPQQLNTLRTTSIVPVDLNSLMFKMEKILARASKAAGDNAMANQYETLANARQKGIEKYLWNDQQGWYADYDLKSHKVRNQLTAAALFPLYVNAAAKDRANKMATATKTHLLQPGGLNTTSVKSGQQWDAPNGWAPLQWVATEGLQNYGQKEVAMDISWHFLTNVQHTYDREKKLVEKYDVSTTGTGGGGGEYPLQDGFGWTNGVTLKMLDLICPKEQPCDNVPATRPTVKSATTQPSTKEAQPTPHHHHHH
notes: also called MaMKII peptide fused to C-terminal fragment of TreA
For B4, the binding result in test [6] is recorded as “binds”.
